Data on one molecule can be found in patent US20050130152, “Method for performing in vitro diagnosis using gene regulation mechanisms and corresponding diagnosis kit” (UNISENSOR S.A., published 2005).

In this data set the target is T1, TetR class C (tetracycline repressor, pSC101) (Escherichia coli C600 (plasmid pSC101), UniProt P03039 P03039:1-219).
T1 sequence: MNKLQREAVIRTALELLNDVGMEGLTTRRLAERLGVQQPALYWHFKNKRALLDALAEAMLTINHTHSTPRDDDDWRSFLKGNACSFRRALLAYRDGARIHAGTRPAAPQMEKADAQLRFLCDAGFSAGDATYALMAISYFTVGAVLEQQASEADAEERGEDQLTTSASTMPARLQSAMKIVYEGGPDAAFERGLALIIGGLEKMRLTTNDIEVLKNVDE
Put plainly: immunochromatographic strip; test line 5218 without tetracycline, falling to 399 at 100 ppb tetracycline in milk; DNA immobilised via avidin. The note with it: tags: untagged; detected via anti-TetR serum and gold-labelled A-protein in strip assay; chain copies: 2; label: 5'-biotin on teta-40; 31 bp duplex with 5' single-strand poly-T tail. As to the method:
200 μl of milk are incubated in the presence of the lyophilised reagents and prepared as in Point 1.1.2.2. After two minutes of incubation at 37° C., the analysis strip described at 1.3 is immersed in the solution. The final interpretation is carried out after 8 minutes of incubation by means of an optical strip reader available from 77-Elektronika (Budapest, Hungary).

B1: tetA operator of pSC101 (teta-40/teta-30) (dsDNA)
DNA 1: TTTTTTTTTTTAATGCGGTAGTTTATCACAGTTAATTGCTAA
DNA 2: TTAGCAATTAACTGTGATAAACTACCGCATT
In the case of B1, the binding result is given as “binds”.
